T1: H1-NTD (hybrid binding domain) (UniProt O60930 27-73)
T1 chain: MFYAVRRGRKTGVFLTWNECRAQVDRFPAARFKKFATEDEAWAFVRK

T2: P54nrb (UniProt Q15233 1-471)
T2 sequence: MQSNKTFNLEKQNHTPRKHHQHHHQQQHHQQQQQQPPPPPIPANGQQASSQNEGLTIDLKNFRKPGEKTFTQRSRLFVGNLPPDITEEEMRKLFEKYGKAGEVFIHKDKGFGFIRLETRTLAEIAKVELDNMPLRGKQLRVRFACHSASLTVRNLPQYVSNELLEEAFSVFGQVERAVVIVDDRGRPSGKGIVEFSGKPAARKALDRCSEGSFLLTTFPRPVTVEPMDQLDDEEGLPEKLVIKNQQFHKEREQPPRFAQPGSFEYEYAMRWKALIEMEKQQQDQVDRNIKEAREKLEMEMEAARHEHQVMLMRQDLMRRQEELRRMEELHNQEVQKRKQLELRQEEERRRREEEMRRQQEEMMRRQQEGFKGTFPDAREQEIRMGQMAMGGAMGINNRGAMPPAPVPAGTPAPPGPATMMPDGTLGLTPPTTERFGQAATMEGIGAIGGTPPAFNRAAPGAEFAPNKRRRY


Experiments:
[1] = target: T1, H1-NTD (hybrid binding domain); test: thermal shift
P54nrb = target: T2, P54nrb; test: thermal shift

Binder | binding result [1] | binding result (P54nrb)
GCTAGCCTCTGGATTT (XNA, PS; 3-10-3 2'-F gapmer) [760614 3-10-3 F PS-ASO] | binds | –
CTGCTAGCCTCTGGATTTGA (XNA, PS; 5-10-5 2'-F gapmer) [404130 5-10-5 F PS-ASO] | – | binds

Reference: publication PMC7969025
